This is an account of results in article PMC9637739.

For assay [1], the target named is S. pneumoniae IgA1P-E1605A (Streptococcus pneumoniae) (UniProt Q59947). As to the kind of experiment: ELISA; metallo-IgA1P mutant coated on Nunc MaxiSorp plate (20 nM by the methods, 100 nM by the legend of Fig. 2d), blocked 2 h at room temperature, human IgA1 with kappa LC added for 2 h, detected with anti-human IgA HRP and ABTS; estimated Kd.
Assay [2] addresses G. haemolysans IgA1P-E1848A (residues 907-2201) (Gemella haemolysans). The description is as above.

One may read the Kd as a measure of binding affinity in units of concentration. As for “Human IgA1 with kappa LC (monomeric) (antibody)”, the values for the Kd in assay [1] and in assay [2] were 798 µM and 1090 µM, respectively.
